Tested on: 293T cells
Experiment: Modified pGL4.72[hRlucCP] vector luciferase assay of RNAi/miRNA activity
Type: cell-based
Settings: overexpression from pEGFP-C1; 10 nM vector-target RNAi; 48 hours post-transfection; FIG. 30
Description: To identify additional substrate proteins of PAPR13, immunoprecipitation experiments were performed on lysate from HeLa cells transfected with a pEGFP-C1 plasmid containing a sequence encoding a PARP13-GFP fusion protein following treatment with either 0 or 250 μM sodium arsenite for 30 minutes. The cell lysate was treated with an anti-GFP antibody and the resulting immunoprecipitated proteins were electrophoresed using SDS-PAGE. […] In a second set of experiments, the ability of the vector-target RNAi to reduce the expression of luciferase was measured in 293T cells transfected with pGL4.72[hRlucCP]™ vector, 20 nM vector-target RNAi, and 20 nM of negative RNAi control for PARP13 siRNA (siNeg; AllStars Negative Control siRNA; Qiagen Catalog No. 1027280) or PARP13 siRNA (siPARP13; SEQ ID NO: 40) following treatment with 0 or 30 nM pateamine A for 2 hours. […]
Experiments to determine the effect of knockdown of PARP13 on miRNA and RNAi activity were performed using a modified pGL4.72[hRlucCP]™-vector assay (Promega). […] Following 48-hours incubation, the level of luciferase protein production was measured using a luciferase assay kit (Promega). […]

B1: PARP13: PARP13 overexpressed from a pEGFP-C1 expression vector; isoform not specified (protein)
chain: ADPEVCCFITKILCAHGGRMALDALLQEIALSEPQLCEVLQVAGPDRFVVLETGGEAGITRSVVATTRARVCRRKYCQRPCDNLHLCKLNLLGRCNYSQSERNLCKYSHEVLSEENFKVLKNHELSGLNKEELAVLLLQSDPFFMPEICKSYKGEGRQQICNQQPPCSRLHICDHFTRGNCRFPNCLRSHNLMDRKVLAIMREHGLNPDVVQNIQDICNSKHMQKNPPGPRAPSSHRRNMAYRARSKSRDRFFQGSQEFLASASASAERSCTPSPDQISHRASLEDAPVDDLTRKFTYLGSQDRARPPSGSSKATDLGGTSQAGTSQRFLENGSQEDLLHGNPGSTYLASNSTSAPNWKSLTSWTNDQGARRKTVFSPTLPAARSSLGSLQTPEAVTTRKGTGLLSSDYRIINGKSGTQDIQPGPLFNNNADGVATDITSTRSLNYKSTSSGHREISSPRIQDAGPASRDVQATGRIADDADPRVALVNDSLSDVTSTTSSRVDDHDSEEICLDHLCKGCPLNGSCSKVHFHLPYRWQMLIGKTWTDFEHMETIEKGYCNPGIHLCSVGSYTINFRVMSCDSFPIRRLSTPSSVTKPANSVFTTKWIWYWKNESGTWIQYGEEKDKRKNSNVDSSYLESLYQSCPRGVVPFQAGSRNYELSFQGMIQTNIASKTQKDVIRRPTFVPQWYVQQMKRGPDHQPAKTSSVSLTATFRPQEDFCFLSSKKYKLSEIHHLHPEYVRVSEHFKASMKNFKIEKIKKIENSELLDKFTWKKSQMKEEGKLLFYATSRAYVESICSNNFDSFLHETHENKYGKGIYFAKDAIYSHKNCPYDAKNVVMFVAQVLVGKFTEGNITYTSPPPQFDSCVDTRSNPSVFVIFQKDQVYPQYVIEYTEDKACVIS
  decrease in the level of miRNA-mediated repression compared to control cells (EGFP- and G3BP-overexpressing cells): 3 fold
